PMC10921949, “Multivalent coiled-coil interactions enable full-scale centrosome assembly and strength” (The Journal of Cell Biology, 2024)

Molecular target: the molecule itself
Test: mass photometry; 50 nM SPD-5(541–677) in PBS on a glass coverslip (TwoMP, Refeyn), alone or after 20 min with 20 nM PLK-1(KD) or PLK-1(CA); dimers seen down to 10 nM

B1: SPD-5(541–677) (domain or fragment, C. elegans, UniProt P91349 541-677, looked up)
chain: SQSHIPILHDMQQILDSSAMFLEGQHDVAVNVEQMQEKMSQIREALARLFERLKSSAALFEEILERMGSSDPNADKIKKMKLAFETSINDKLNVSAILEAAEKDLHNMSLNFSILEKSIVSQAAEASRRFTIAPDAE
notes: Used alone and after incubation with kinase-dead PLK-1 (unphosphorylated); also called helical hairpin; source: Arctic Express bacteria, purified (Ni-NTA, Superdex 75 size exclusion)
stoichiometry N: 2

B2: SPD-5(541–677) phosphorylated by PLK-1(CA) (domain or fragment, C. elegans, UniProt P91349 541-677, looked up)
chain: SQSHIPILHDMQQILDSSAMFLEGQHDVAVNVEQMQEKMSQIREALARLFERLKSSAALFEEILERMGSSDPNADKIKKMKLAFETSINDKLNVSAILEAAEKDLHNMSLNFSILEKSIVSQAAEASRRFTIAPDAE
modifications: phosphorylated by PLK-1 (verified by gel migration shift and MS); sites of this sample not listed in the text
notes: also called phosphorylated hairpin; source: Arctic Express bacteria, purified (Ni-NTA, Superdex 75 size exclusion); then incubated with PLK-1(CA)
stoichiometry N: 2

B3: SPD-5(541–677) R592K (domain or fragment, C. elegans, UniProt P91349 541-677, looked up)
chain: SQSHIPILHDMQQILDSSAMFLEGQHDVAVNVEQMQEKMSQIREALARLFEKLKSSAALFEEILERMGSSDPNADKIKKMKLAFETSINDKLNVSAILEAAEKDLHNMSLNFSILEKSIVSQAAEASRRFTIAPDAE
notes: source: purified
stoichiometry N: 2
